Test results: patent US9513287

Target: Shiga toxin 2f (Stx2f) holotoxin (Escherichia coli)

B1: monoclonal antibody Stx2f-1 (antibody, V domains shown)
VH: QVQLQQSGPEVVRPGVSVKISCKGSGYTFTDYAIHWVKQSHAKSLEWIGFISTYNGNPNYNKEFKGKATVTVDKSSSTAYLELARLTSEDSAIYFCARDFYGSSSWFAYWGQGTLVTVSA
VL: DIVLTQTPASLAVSLGQRATISCRASESVDSYGDDFMHWYQQKPGQPPKLLIYRVSNLESGIPVRFSGSGSRTDFTLTINPVEADDDATYYCQQSNENPYTFGGGTKLEIK
- Kd: 0.516 nM
